Assay results published in patent US20190127434.

System: K6UbKMRC011

USP1 (ubiquitin-specific protease 1)
cleavage by USP1, SDS-PAGE analysis (10 mg/L enzyme, 37 C, 12 hours): most of the refolded K6UbKMRC011 was cleaved by USP1 and separated into K6Ub and KMRC011 | cleavage by ubiquitin cleavage enzymes, SDS-PAGE analysis (10 mg/L enzyme, 37 C, 12 hours): the refolded K6UbKMRC011 was cleaved by the ubiquitin cleavage enzymes shown in Table 2 and correctly separated into K6Ub and KMRC011 | on-column cleavage, amino terminal sequence analysis of the released KMRC011: the USPI clearly cleaved the immediate side of K6Ub of K6UbKMRC011 so that only KMRC011 was separated and purified
